B1: Calypso^43–404 (wild type), as in the Calypso^43–404–ASX^207–340 complex [Drosophila melanogaster] / itself (parent)
chain: ADGWLELESDPGLFTLLLKDFGCHDVQVEEVYDLQKPIESPYGFIFLFRWIEERRARRKIVETTAEIFVKDEEAISSIFFAQQVVPNSCATHALLSVLLNCNENNLQLGDTLSRLKTHTKGMSPENKGLAIGNTPELACAHNSHAMPQARRRLERTGAGVSSCRFTGEAFHFVSFVPINGQLFELDGLKPYPMNHGGWEDSEDWTDKFRRVMAERLGIATGEQDIRFNLMAVVPDRRIAITHKLKMLRTNQAIVSGTLQKLLKADEQGESGNGDSQRPDTPTTLLEPSAFTARDLQSLLKNLDTEIAINEQHLADENDRRHMFKVDASRRTHNYDKFICTFLSMLAHQGVLGELVSQHLLPS

Experimental findings from publication PMC6158172, “A bidentate Polycomb Repressive-Deubiquitinase complex is required for efficient activity on nucleosomes” (Nature Communications, 2018) are described below.

Variants of B1 are the subject of the test. The test is described as follows: SEC-MALLS (Calypso–Calypso dimerisation within the Calypso–ASX complex). The note with it: with itself; 50 μM; 20 mM HEPES pH 7.5 and 100 mM NaCl; read off a plot.
For ADGWLELESDPGLFTLLLKDFGCHDVQVEEVYDLQKPIESPYGFIFLFRWIEERRARRKIVETTAEIFVKDEEAISSIFFAQQVVPNSCATHALLSVLLNCNENNLQLGDTLSRLKTHTKGMSPENKGLAIGNTPELACAHNSHAMPQARRRLERTGAGVSSCRFTGEAFHFVSFVPINGQLFELDGLKPYPMNHGGWEDSEDWTDKFRRVMAERLGIATGEQDIRFNLMAVVPDRRIAITHKLKRLRTNQAIVSGTLQKLLKADEQGESGNGDSQRPDTPTTLLEPSAFTARDLQSLLKNLDTEIAINEQHLADENDRRHMFKVDASRRTHNYDKFICTFLSMLAHQGVLGELVSQHLLPS [chain 1 M246R], the screen value was found to be 77 kDa.
